Patent US20050239730A1, “Plasmodium falciparum erythrocyte binding protein baebl for use as a vaccine” (priority 2001, published 2005)

B1: EBA-175: P. falciparum receptor that binds sialic acid and the peptide backbone of glycophorin A on erythrocytes (protein)
chain: ARNEYDIKENEKFLDVYKEKFNELDKKKYGNVQKTDKKIFTFIENKLDILNNSKFNKRWKSYGTPDNIDKNMSLINKHNNEEMFNNNYQSFLSTSSLIKQNKYVPINAVRVSRILSFLDSRINNGRNTSSNNEVLSNCREKRKGMKWDCKKKNDRSNYVCIPDRRIQLCIVNLSIIKTYTKETMKDHFIEASKKESQLLLKKNDNKYNSKFCNDLKNSFLDYGHLAMGNDMDFGGYSTKAENKIQEVFKGAHGEISEHKIKNFRKEWWNEFREKLWEAMLSEHKNNINNCKNIPQEELQITQWIKEWHGEFLLERDNRSKLPKSKCKNNTLYEACEKECIDPCMKYRDWIIRSKFEWHTLSKEYETQKVPKENAENYLIKISENKNDAKVSLLLNNCDAEYSKYCDCKHTTTLVKSVLNGNDNTIKEKREHIDLDDFSKFGCDKNSVDTNTKVWECKNPYILSTKDVCVPPRRQELCLGNIDRIYDKNLLMIKEHILAIAIYESRILKRKYKNKDDKEVCKIINKTFADIRDIIGGTDYWNDLSNRKLVGKINTNSKYVHRNKKNDKLFRDEWWKVIKKDVWNVISWVFKDKTVCKEDDIENIPQFFRWFSEWGDDYCQDKTKMIETLKVECKEKPCEDDNCKSKCNSYKEWISKKKEEYNKQAKQYQEYQKGNNYKMYSEFKSIKPEVYLKKYSEKCSNLNFEDEFKEELHSDYKNKCTMCPEVKDVPISIIRNNEQTSQEAVPEENTEIAHRTETPSISEGPKGNEQKERDDDSLSKISVSPENSRPETDAKDTSNLLKLKGDVDISMPKAVIGSSPNDNINVTEQGDNISGVNSKPLSDDVRPDKKELEDQNSDESEETVVNHISKSPSINNGDDSGSGSATVSESSSSNTGLSIDDDRNGDTFVRTQDTANTEDVIRKENADKDEDEKGADEERHSTSESLSSPEEKMLTDNEGGNSLNHEEVKEHTSNSDNVQQSGGIVNMNVEKELKDTLENPSSSLDEGKAHEELSEPNLSSDQDMSNTPGPLDNTSEETTERISNNEYKVNEREDERTLTKEYEDIVLKSHMNRESDDGELYDENSDLSTVNDESEDAEAKMKGNDTSEMSHNSSQHIESDQQKNDMKTVGDLGTTHVQNEISVPVTGEIDEKLRESKESKIHKAEEERLSHTDIHKINPEDRNSNTLHLKDIRNEENERHLTNQNINISQERDLQKHGFHTMNNLHGDGVSERSQINHSHHGNRQDRGGNSGNVLNMRSNNNNFNNIPSRYNLYDKKLDLDLYENRNDSTTKELIKKLAEINKCENEISVKYCDHMIHEEIPLKTCTKEKTRNLCCAVSDYCMSYFTYDSEEYYNCTKREFDDPSYTCFRKEAFSSMIFKFLITNKIYYYFYTYKTAKVTIKKINFSLIFFFFFSF
B2: BAEBL: Plasmodium falciparum erythrocyte binding protein of the DBL-EBP family (SEQ ID NO: 2); here metabolically labeled protein from Dd2/Nm culture supernatant (protein, listed as Plasmodium falciparum)
chain: MKGYFNIYFLIPLIFLYNVIRINESIIGRTLYNRQDESSDISRVNSPELNNNHKTNIYDSDYEDVNNKLINSFVENKSVKKKRSLSFINNKTKSYDIIPPSYSYRNDKFNSLSENEDNSGNTNSNNFANTSEISIGKDNKQYTFIQKRTHLFACGIKRKSIKWICRENSEKITVCVPDRKIQLCVANFLNSRLETMEKFKEIFLISVNTEAKLLYNKNEGKDPSIFCNELRNSFSDFRSSFIGDDMDFGGNTDRVKGYINTKFSDYYKEKNVEKLNNIKKEWWEKNKANLWNHMIVNHKGNISKECAIIPAEEPQINLWIKEWNENFLMEKKRLFLNIKDKCVENKKYEACFGGCRLPCSSYTSFMKKSKTQMEVLTNLYKKKNSGVDKNNFLNDLFKKNNKNDLDDFFKNEKEYDDLCDCRYTATIIKSFLNGPAKNDVDIASQINVNDLRGFGCNYKSNNEKSWNCTGTFTNKFPGTCEPPRRQTLCLGRTYLLHRGHEEDYKEHLLGASIYEAQLLKYKYKEKDENALCSIIQNSYADLADIIKGSDIIKDYYGKKMEENLNKVNKDKKRNEESLKIFREKWWDENKENVWKVMSAVLKNKETCKDYDKFQKIPQFLRWFKEWGDDFCEKRKEKIYSFESFKVECKKKDCDENTCKNKCSEYKKWIDLKKSEYEKQVDKYTKDKNKKMYDNIDEVKNKEANVYLKEKSKECKDVNFDDKIFNESPNEYEDMCKKCDEIKYLNEIKYPKTKHDIYDIDTFSDTFGDGTPISINANINEQQSGKDTSNTGNSETSDSPVSHEPESDAAINVEKLSGDESSSETRGILDINDPSVTNNVNEVHDASNTQGSVSNTSDITNGHSESSLNRTTNAQDIKIGRSGNEQSDNQENSSHSSDNSGSLTIGQVPSEDNTQNTYDSQNPHRDTPNALASLPSDDKINEIEGFDSSRDSENGRGDTTSNTHDVRRTNIVSERRVNSHDFIRNGMANNNAHHQYITQIENNGIIRGQEESAGNSVNYKDNPKRSNFSSENDHKKNIQEYNSRDTKRVREEIIKLSKQNKCNNEYSMEYCTYSDERNSSPGPCSREERKKLCCQISDYCLKYFNFYSIEYYNCIKSEIKSPEYKCFKSEGQSSIPYFAAGGILVVIVLLLSSASRMGKSNEEYDIGESNIEATFEENNYLNKLSRIFNQEVQETNISDYSEYNYNEKNMY
modifications: metabolic label
notes: here metabolically labeled protein from Dd2/Nm culture supernatant
B3: VSTK: BAEBL region II variant (aa 143-606) expressed in COS cells; V185, S239, T261, K285 (protein)
chain: TFIQKRTHLFACGIKRKSIKWICRENSEKITVCVPDRKIQLCVANFLNSRLETMEKFKEIFLISVNTEAKLLYNKNEGKDPSIFCNELRNSFSDFRSSFIGDDMDFGGNTDRVKGYINTKFSDYYKEKNVEKLNNIKKEWWEKNKANLWNHMIVNHKGNISKECAIIPAEEPQINLWIKEWNENFLMEKKRLFLNIKDKCVENKKYEACFGGCRLPCSSYTSFMKKSKTQMEVLTNLYKKKNSGVDKNNFLNDLFKKNNKNDLDDFFKNEKEYDDLCDCRYTATIIKSFLNGPAKNDVDIASQINVNDLRGFGCNYKSNNEKSWNCTGTFTNKFPGTCEPPRRQTLCLGRTYLLHRGHEEDYKEHLLGASIYEAQLLKYKYKEKDENALCSIIQNSYADLADIIKGSDIIKDYYGKKMEENLNKVNKDKKRNEESLKIFREKWWDENKENVWKVMSAVLKNKET

Key:
[1] = target: normal human erythrocytes (untreated); assay: region II on COS cells, erythrocyte-binding assay
[2] = target: Gerbich human erythrocytes (exon 3 deletion of glycophorin C/D: shortened glycophorin C, absent glycophorin D); assay: region II on COS cells, erythrocyte-binding assay
[3] = tested on: human erythrocytes; assay: Modified erythrocyte binding assay: absorption/elution of metabolically labeled parasite proteins followed by immunoprecipitation; details: for Binding to En(a-) erythrocytes: which lack glycophorin A; for Binding to S-s-U- erythrocytes: S-s-U- erythrocytes that lacked glycophorin B; for Elution from Gerbich and normal erythrocytes: fresh Gerbich erythrocytes vs normal erythrocytes; for Absorption from culture supernatant by Gerbich cells compared with normal erythrocytes: fresh blood from a person with the Gerbich mutation, two separate experiments; for Binding to neuraminidase-treated human erythrocytes / Binding to trypsin-treated human erythrocytes: Dd2/Nm culture supernatant; for Binding to Gerbich erythrocytes: pellet-frozen Gerbich (-2, -3, -4) erythrocytes; for Binding to Yus erythrocytes: pellet-frozen Yus (-2, -3, -4) erythrocytes
Description: We have developed a new assay for measuring binding of BAEBL to erythrocytes. Previously, EBA-175 was identified in parasite proteins bound and eluted from human erythrocytes. Its identification was based on the fact that it was the most abundant and the highest molecular weight protein eluted from these erythrocytes. Lower molecular weight proteins may be proteolytic fragments of EBA-175 or products of different genes. To positively identify BAEBL, we immunoprecipitated BAEBL from proteins eluted from erythrocytes with anti-region II and anti-region VI.
We also modified the protocol in that we identified proteins removed from the supernatant by erythrocyte absorption. We determined the different quantities of erythrocytes required to remove BAEBL from the parasite supernatant. […] The protein was largely removed by absorbing twice with 50 μl of packed erythrocytes for some culture supernatants and by only one absorbtion with 50 μl for other supernatants. Therefore, on some samples, we absorbed with 25 μl, 50 μl once, and 50 μl twice for comparison between normal erythrocytes and mutant erythrocytes or enzyme-treated erythrocytes. The protein was also eluted from the first 50 μl of packed erythrocytes used for absorption.
Blood was collected in 10% citrate-phosphate-dextrose (vol/vol) and stored for up to 4 weeks at 4° C. At the time of study, the erythrocytes were washed three times in incomplete media (RPMI-1640; Life Technologies, Rockville, Md.) with 25 mM HEPES and 0.36 mM hypoxanthine (Sigma, St. Louis, Mo.). For neuraminidase treatment, 5.5 ml of a 5% (vol/vol) suspension of the washed human erythrocytes in incomplete media were incubated twice with 3 milliunits of neuraminidase (Vibrio cholerae; CalBiochem, La Jolla, Calif.) for 2 hr at 37° C. each time. For trypsin treatment, washed human erythrocytes were incubated with 1 mg/ml of tosyl-phenylalanine-chloromethyl-ketone-treated trypsin (Sigma) for 2 hr at 37° C. After trypsin treatment, the cells were washed once in incomplete medium and incubated with 2 mg/ml soybean trypsin inhibitor (Sigma) for 10 min at room temperature. The cells were washed twice before use in a study.
The glycophorin A and glycophorin B null erythrocytes [En(a-) and S-s-U-, respectively and the glycophorin D null/glycophorin C modified erythrocytes (Gerbich cells) were frozen within a few days of receipt and thawed by the Red Cross method (Mallory, D. ed. 1993 Immunohematology Methods and Procedures American Red Cross, National Reference Laboratory, Rockville, Md., pp. 125-1-125-2). Blood from a Gerbich donor was collected in 10% (vol/vol) anticoagulant citrate-phosphate-dextrose.
Other glycophorin C/D mutant cells (Leach, Gerbich, and Yus cells) had been stored in liquid nitrogen as frozen pellets (Judd, W. J. 1994 in: Methods in Immunohematology Montgomery Scientific Publications Durham, N.C., pp. 188-190) and thawed directly into PBS at 37° C.
Soluble, metabolically labeled parasite proteins were obtained from culture supernatant of schizont-infected erythrocytes that released merozoites in the absence of uninfected erythrocytes. The parasites were left to lyse and release proteins into the culture supernatant. The Dd2/Nm clone of P. falciparum was cultured as previously described (Kaneko, O. et al. 2000 Mol Biochem Parasitol 110: […]) with the following exceptions. Schizont-infected erythrocytes (5×10^7 per ml of culture medium) were used during the metabolic labeling. The culture supernatant was ultracentrifuged in a Beckman Optima TLX Ultracentrifuge (Beckman, Fullerton, Calif.) at 40,000 rpm (98,600×g) for 10 min at 4° C. before storage at −70° C.
Proteins in the supernatant and in the diluted eluate were immunoprecipitated as previously described (Kaneko, O. et al. 2000 Mol Biochem Parasitol 110: 135-146) with the following exceptions. […]

[4] = tested on: RBC (normal, trypsin- or neuraminidase-treated, Gerbich-negative); assay: Erythrocyte-binding assay with BAEBL region II variants expressed on the surface of COS cells; assay type: cell-based, human
[5] = glycophorin C/D null erythrocytes of the Leach phenotype, preliminary experiments

Row | Molecule | COS cells with five or more attached RBC, total per coverslip (COS cells per coverslip) [1] | percentage of binding to normal, untreated RBC [2] [%] | Binding to En(a-) erythrocytes [3] | Binding to S-s-U- erythrocytes [3] | Elution from Gerbich and normal erythrocytes [3] | Absorption from culture supernatant by Gerbich cells compared with normal erythrocytes [3] | Binding to neuraminidase-treated human erythrocytes [3] | Binding to Gerbich erythrocytes [3] | Binding to Yus erythrocytes [3] | Binding to trypsin-treated human erythrocytes [3] | Detection in eluate of Leach erythrocytes [3, 5] | Detection in parasite supernatant absorbed with Leach erythrocytes [3, 5] | Elution from neuraminidase-treated normal erythrocytes ([3]; neuraminidase-treated normal erythrocytes) | Binding to Gerbich-negative RBC as percentage of binding to normal, untreated RBC ([4]; Gerbich-negative RBC (exon 3 deletion of glycophorin C/D)) [%] | Binding to neuraminidase-treated normal RBC as percentage of binding to normal, untreated RBC ([4]; neuraminidase-treated normal RBC) [%] | Binding to normal RBC, untreated: COS cells with five or more attached RBC, total per coverslip ([4]; normal untreated RBC, region II (aa 143-606) expressed in COS cells) | Binding to trypsin-treated normal RBC as percentage of binding to normal, untreated RBC ([4]; trypsin-treated normal RBC) [%]
1 | BAEBL region II variant VSTK, expressed on the surface of COS cells (ligand) | 65 | 0.9 | – | – | – | – | – | – | – | – | – | – | – | – | – | – | –
2 | B1 | – | – | failed to bind | bound | eluted from both Gerbich and normal erythrocytes | bound equally well to Gerbich and normal erythrocytes | failure of neuraminidase-and trypsin-treated erythrocytes to bind | bound normally | bound normally | failure of neuraminidase-and trypsin-treated erythrocytes to bind | – | – | – | – | – | – | –
3 | B2 | – | – | bound to these erythrocytes in a similar manner as to normal erythrocytes | bound | eluted from normal but not Gerbich erythrocytes | required twice as many Gerbich cells | eliminated the binding | reduced binding | reduced binding | eliminated the binding | never detected | not detected | did not elute | – | – | – | –
4 | B3 | – | – | – | – | – | – | – | – | – | – | – | – | – | 0.9 | 0 | 65 | 0
